This assay deals with endogenous optineurin (rat (endogenous in RGC5)) (UniProt Q8R5M4). Briefly: native gel or EMSA; native blue gel electrophoresis (NativePAGE Novex Bis-Tris gel) of lysates in IP buffer from RGC5 cells or RGC5 cells transfected with pTarget-FLAG-OPTN, non-reducing; Western blot with anti-C-terminal optineurin or anti-FLAG. Background: In EMSA bound probe runs differently from free probe, usually more slowly.

As to “endogenous optineurin (from UniProt Q8R5M4 1-585) (natural protein)”, the stoichiometry N (commonly a count of units in the complex or per binding partner) turned out to be 6.

The values above are taken from paper PMC2820081.
